Among the data in the supplement of paper PMC10567573 are protein stability index values, retold here.

To fix the notation:
B1: PPFIA4 (parent)
chain: VMTLPSDLRKHRRKLLSPVSREEN
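Also: lentivirally expressed fusions sorted by FACS into six bins by GFP to DsRed ratio, PSI derived from sequencing read proportions per bin multiplied by bin number.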

The variants in this series derive from B1. As to the kind of experiment: protein stability index of a GFP-peptide fusion (GPS, HEK-293T) (PSI 1-6); higher = more stable. The settings on record: c terminus: a fixed tail appended.
In the case of VMTLPSPLRKHRRKLLSPVSREEN [D7P], the protein stability index was found to be 3.44.
VMTLPSHLRKHRRKLLSPVSREEN [D7H]: the protein stability index worked out at 3.15.
The figure for VMTLPSTLRKHRRKLLSPVSREEN [D7T] is 3.24; for VMTLPSGLRKHRRKLLSPVSREEN [D7G] it is 3.62.
Consider VMTLPSFLRKHRRKLLSPVSREEN [D7F], for which the protein stability index was determined as 2.57.
The result for VMTLPSALRKHRRKLLSPVSREEN [D7A] reads 2.24; that for VMTLPSVLRKHRRKLLSPVSREEN [D7V], 2.84.
The result for VMTLPSKLRKHRRKLLSPVSREEN [D7K] reads 3.19; that for VMTLPSMLRKHRRKLLSPVSREEN [D7M], 2.94; that for VMTLPSWLRKHRRKLLSPVSREEN [D7W], 2.92.
The figure for VMTLPSCLRKHRRKLLSPVSREEN [D7C] is 2.86.
For VMTLPSLLRKHRRKLLSPVSREEN [D7L], the protein stability index worked out at 2.33.
Regarding VMTLPSRLRKHRRKLLSPVSREEN [D7R], the protein stability index was found to be 3.31.
Take VMTLPSILRKHRRKLLSPVSREEN [D7I]: the protein stability index was found to be 2.72.
The result for VMTLPSQLRKHRRKLLSPVSREEN [D7Q] reads 3.3.
The figure for VMTLPSYLRKHRRKLLSPVSREEN [D7Y] is 3.2.
The figure for VMTLPSNLRKHRRKLLSPVSREEN [D7N] is 3.39; for VMTLPSELRKHRRKLLSPVSREEN [D7E] it is 3.46; for VMTLPSSLRKHRRKLLSPVSREEN [D7S] it is 2.98.
As for VMTSPSDLRKHRRKLLSPVSREEN [L4S], the protein stability index was 3.94.
The result for VMTNPSDLRKHRRKLLSPVSREEN [L4N] reads 4.23.
The figure for VMTGPSDLRKHRRKLLSPVSREEN [L4G] is 4.45; for VMTEPSDLRKHRRKLLSPVSREEN [L4E] it is 4.37.
The result for VMTQPSDLRKHRRKLLSPVSREEN [L4Q] reads 4.02; that for VMTKPSDLRKHRRKLLSPVSREEN [L4K], 4.44; that for VMTHPSDLRKHRRKLLSPVSREEN [L4H], 4.08.
Consider VMTMPSDLRKHRRKLLSPVSREEN [L4M], for which the protein stability index was found to be 3.69.
For VMTYPSDLRKHRRKLLSPVSREEN [L4Y], the protein stability index was found to be 3.45.
The result for VMTVPSDLRKHRRKLLSPVSREEN [L4V] reads 3.77; that for VMTIPSDLRKHRRKLLSPVSREEN [L4I], 3.42.
Consider VMTFPSDLRKHRRKLLSPVSREEN [L4F], for which the protein stability index is 3.4.
The result for VMTDPSDLRKHRRKLLSPVSREEN [L4D] reads 4.14; that for VMTTPSDLRKHRRKLLSPVSREEN [L4T], 4.28; that for VMTRPSDLRKHRRKLLSPVSREEN [L4R], 3.25.
For VMTWPSDLRKHRRKLLSPVSREEN [L4W], the protein stability index came out at 4.09.
Regarding VMTPPSDLRKHRRKLLSPVSREEN [L4P], the protein stability index was 4.32.
The result for VMTLPSDHRKHRRKLLSPVSREEN [L8H] reads 3.9; that for VMTLPSDVRKHRRKLLSPVSREEN [L8V], 4.11; that for VMTLPSDFRKHRRKLLSPVSREEN [L8F], 3.59.
The result for VMTLPSDKRKHRRKLLSPVSREEN [L8K] reads 4.14.
For VMTLPSDMRKHRRKLLSPVSREEN [L8M], the protein stability index stood at 4.01.
The result for VMTLPSDWRKHRRKLLSPVSREEN [L8W] reads 3.22.
The figure for VMTLPSDQRKHRRKLLSPVSREEN [L8Q] is 4.05; for VMTLPSDNRKHRRKLLSPVSREEN [L8N] it is 3.74; for VMTLPSDPRKHRRKLLSPVSREEN [L8P] it is 3.84.
The figure for VMTLPSDARKHRRKLLSPVSREEN [L8A] is 3.43; for VMTLPSDIRKHRRKLLSPVSREEN [L8I] it is 4.07; for VMTLPSDERKHRRKLLSPVSREEN [L8E] it is 4.35.
On to VMTLPSDCRKHRRKLLSPVSREEN [L8C], for which the protein stability index turned out to be 4.04.
The figure for VMTLPSDGRKHRRKLLSPVSREEN [L8G] is 3.56.
As for VMTLPSDTRKHRRKLLSPVSREEN [L8T], the protein stability index was 4.24.
The result for VMTLPSDDRKHRRKLLSPVSREEN [L8D] reads 4.28.
As to VMTLPSDRRKHRRKLLSPVSREEN [L8R], the protein stability index worked out at 4.15.
The result for VMTLPSDYRKHRRKLLSPVSREEN [L8Y] reads 3.24; that for VMTLPSDSRKHRRKLLSPVSREEN [L8S], 4.73; that for VMTLPSDLRKHRGKLLSPVSREEN [R13G], 3.91.
VMTLPSDLRKHRHKLLSPVSREEN [R13H]: the protein stability index was determined as 4.05.
The result for VMTLPSDLRKHRVKLLSPVSREEN [R13V] reads 3.78.
The result for VMTLPSDLRKHREKLLSPVSREEN [R13E] reads 4.59.
For the variant VMTLPSDLRKHRDKLLSPVSREEN [R13D], the protein stability index was found to be 4.09.
As for VMTLPSDLRKHRPKLLSPVSREEN [R13P], the protein stability index was 4.33.
The result for VMTLPSDLRKHRTKLLSPVSREEN [R13T] reads 3.98; that for VMTLPSDLRKHRCKLLSPVSREEN [R13C], 3.49.
The figure for VMTLPSDLRKHRMKLLSPVSREEN [R13M] is 3.12.
As to VMTLPSDLRKHRNKLLSPVSREEN [R13N], the protein stability index worked out at 3.95.
The figure for VMTLPSDLRKHRIKLLSPVSREEN [R13I] is 3.47; for VMTLPSDLRKHRKKLLSPVSREEN [R13K] it is 3.5; for VMTLPSDLRKHRLKLLSPVSREEN [R13L] it is 4.05.
The result for VMTLPSDLRKHRAKLLSPVSREEN [R13A] reads 4.11; that for VMTLPSDLRKHRFKLLSPVSREEN [R13F], 2.89.
The result for VMTLPSDLRKHRSKLLSPVSREEN [R13S] reads 4.36.
VMTLPSDLRKHRQKLLSPVSREEN [R13Q]: the protein stability index is 4.27.
The figure for VMTLPSDLRKHRYKLLSPVSREEN [R13Y] is 3.63; for VMTLPSDLRKHRWKLLSPVSREEN [R13W] it is 2.92.
The result for VMTLPSDLRKHRRALLSPVSREEN [K14A] reads 3.61; that for VMTLPSDLRKMRRKLLSPVSREEN [H11M], 3.49; that for VMTLPSDLRKWRRKLLSPVSREEN [H11W], 3.24.
Regarding VMTLPSDLRKYRRKLLSPVSREEN [H11Y], the protein stability index was 3.35.
Turning to VMTLPSDLRKLRRKLLSPVSREEN [H11L], the protein stability index was determined as 3.14.
The figure for VMTLPSDLRKTRRKLLSPVSREEN [H11T] is 3.79.
The figure for VMTLPSDLRKRRRKLLSPVSREEN [H11R] is 3.99; for VMTLPSDLRKGRRKLLSPVSREEN [H11G] it is 3.79.
The result for VMTLPSDLRKIRRKLLSPVSREEN [H11I] reads 3.12.
As for VMTLPSDLRKFRRKLLSPVSREEN [H11F], the protein stability index was 3.46.
The result for VMTLPSDLRKVRRKLLSPVSREEN [H11V] reads 3.35; that for VMTLPSDLRKARRKLLSPVSREEN [H11A], 3.42.
The result for VMTLPSDLRKKRRKLLSPVSREEN [H11K] reads 3.44; that for VMTLPSDLRKERRKLLSPVSREEN [H11E], 4.37.
The result for VMTLPSDLRKSRRKLLSPVSREEN [H11S] reads 3.75.
Take VMTLPSDLRKPRRKLLSPVSREEN [H11P]: the protein stability index is 4.4.
The result for VMTLPSDLRKDRRKLLSPVSREEN [H11D] reads 4.37; that for VMTLPSDLRKQRRKLLSPVSREEN [H11Q], 2.93.
The figure for VMTLPSDLRKNRRKLLSPVSREEN [H11N] is 4.02; for VMTLPSDLRKCRRKLLSPVSREEN [H11C] it is 3.69.
